In paper PMC9029856, “Impact of Different [Tc(N)PNP]-Scaffolds on the Biological Properties of the Small cRGDfK Peptide: Synthesis, In Vitro and In Vivo Evaluations” (Molecules, 2022):
Like-named read-outs stand apart in the source and are kept apart here.

Assays:
[1] = parameters: species or system Sprague Dawley rats; conditions: rat, in vivo, iv, 15 uCi/100 uL
Protocol: Pharmacokinetics and metabolism.
Female Sprague Dawley rats weighing 180–200 g were anesthetized with an intraperitoneal injection of a mixture of Zoletil (40 mg/kg) and xylazine (2 mg/kg). A jugular vein was surgically exposed, and the solution containing the radiolabeled peptide was injected (15 µCi/100 µL). The rats (n = 3) were scarified by cervical dislocation at different times after injection. The blood was withdrawn from the heart with a syringe immediately after death and quantified. Organs were excised, rinsed in saline, weighed, and the activity was counted in a NaI counter. The results were expressed as the percentage of injected activity per gram of tissue (%IA/g) to be able to compare our results with those reported in the literature.

[2] = system: receptor-negative human melanoma M21L cells; assay: Cell uptake and internalization in M21L cells; assay type: cell-based; conditions: negative M21L cell line, 37 °C, 90 min
Protocol: Cell uptake and internalization studies were performed on receptor-positive human melanoma M21 (expressing high levels of αvβ3 integrin and moderate level of integrin αvβ5), human breast cancer MCF7 (exclusively expressing αvβ5), and receptor-negative human melanoma M21L cell lines. The expression of αvβ3 and αvβ5 by cells was already evaluated by flow cytometry (Table 2). The stability of each radiolabeled peptide in the culture media before and after cell exposure was assessed.
Experiments were conducted in suspension at 37 °C. The working conditions were set up to avoid cell damage and/or death. With the use of these information, the cells were pre-incubated in sterile glass tubes at 37 °C for 10 min, in the presence or not of cRGDfK pentapeptide (50 µL; 1.65 mM).
Then, 1 mL of the cell suspension (1 × 10^6 cells/mL) was incubated with intermittent agitation with 10 µL (10 µCi) of ^99mTc1–3. At 90 min, the cells were moved in Eppendorf microcentrifuge tubes (1.5 mL) and the incubation was interrupted by centrifugation (3000 rpm for 5 min at 10 °C). The supernatant (S1) was separated from the pellet. The cell pellet was treated 10 min at room temperature with saline acetate buffer (CH3COOH 0.2M/NaCl 0.5 M) to remove the membrane-bound compound. After centrifugation (3000 rpm for 10 min at 10 °C), the supernatant (S2) was separated from the pellet (P1), and each fraction was collected, placed in a separated counting tube, and the activity was measured using a NaI counter (Cobra II, Packard) to estimate both the cell uptake and the internalized fraction.
The uptake of complexes was expressed as percentage cell uptake of the total activity on 10^6 cells (% cell uptake/10^6 cells).
All assessments were conducted in triplicate for three experiments.

[3] = parameters: species or system Sprague Dawley rats; conditions: rat, in vivo
Protocol: As expected, MRT values of liver and kidneys were much higher than the dose of stomach, spleen, lung, and heart.
The time–activity curves of the main organs were obtained using the biodistribution data (%IA/organ) as input for the CoKiMo spreadsheet software. Then, the organ mean residence times (MRT) were computed by integration of the organ activity curves, extrapolated until 5 half-lives of Tc-99m (30 h) and corrected for its physical decay, to evaluate the pharmacokinetic profile of each radiolabeled peptide.

serum proteins = assay type: in vitro ADME
Protocol: Thus, to have some predictive indications of the metabolic outcome of our compounds, the binding to serum proteins and the enzymatic biotransformation of ^99mTc1–3 in blood and tissue homogenates were assessed in vitro by incubating the purified compounds at 37 °C in human and mouse sera as well as in murine liver and kidney homogenates.
Protein Binding. The affinity of the ^99mTc(N) complexes toward the serum proteins was evaluated by chromatographic methods.
Upon incubation, 25 µL of each sample was withdrawn and loaded on a pre-spun (735× g for 2 min) Sephadex G-50 mini-column. The column was centrifuged at 735 × g for 1 min. The collected eluate and the column were counted in a NaI-scintillation counter. The protein-bound complex was calculated as the percentage of the total activity.

Question: Which results are given for [Tc(N)(H2NS-cRGDfK)(PNP3)]^+ [^99mTc1]?
Answer: Blood ([1]; 0.5 h): 0.81 ± 0.05 %IA/g; Heart ([1]; 0.5 h): 0.26 ± 0.05 %IA/g; Intestine ([1]; 0.5 h): 0.65 ± 0.16 %IA/g; Kidneys ([1]; 0.5 h): 2.71 ± 0.18 %IA/g; Liver ([1]; 0.5 h): 0.96 ± 0.10 %IA/g; Lungs ([1]; 0.5 h): 0.64 ± 0.09 %IA/g; Muscle ([1]; 0.5 h): 0.21 ± 0.09 %IA/g; Spleen ([1]; 0.5 h): 0.65 ± 0.09 %IA/g; Stomach ([1]; 0.5 h): 0.53 ± 0.07 %IA; Urine ([1]; 0.5 h): 27.2 ± 11.7 %IA; Blood ([1]; 1 h): 0.30 ± 0.04 %IA/g; Heart ([1]; 1 h): 0.15 ± 0.01 %IA/g; Intestine ([1]; 1 h): 0.60 ± 0.12 %IA/g; Kidneys ([1]; 1 h): 1.57 ± 0.13 %IA/g; Liver ([1]; 1 h): 0.75 ± 0.02 %IA/g; Lungs ([1]; 1 h): 0.43 ± 0.01 %IA/g; Muscle ([1]; 1 h): 0.13 ± 0.06 %IA/g; Spleen ([1]; 1 h): 0.51 ± 0.04 %IA/g; Stomach ([1]; 1 h): 0.41 ± 0.02 %IA; Urine ([1]; 1 h): 33.1 ± 5.6 %IA; Blood ([1]; 2 h): 0.09 ± 0.01 %IA/g; Heart ([1]; 2 h): 0.10 ± 0.02 %IA/g; Intestine ([1]; 2 h): 0.40 ± 0.07 %IA/g; Kidneys ([1]; 2 h): 0.92 ± 0.20 %IA/g; Liver ([1]; 2 h): 0.68 ± 0.06 %IA/g; Lungs ([1]; 2 h): 0.25 ± 0.03 %IA/g; Muscle ([1]; 2 h): 0.10 ± 0.06 %IA/g; Spleen ([1]; 2 h): 0.47 ± 0.04 %IA/g; Stomach ([1]; 2 h): 0.34 ± 0.04 %IA; Urine ([1]; 2 h): 54.3 ± 1.9 %IA; Blood ([1]; 4 h): 0.05 ± 0.01 %IA/g; Heart ([1]; 4 h): 0.08 ± 0.01 %IA/g; Intestine ([1]; 4 h): 0.38 ± 0.01 %IA/g; Kidneys ([1]; 4 h): 0.88 ± 0.09 %IA/g; Liver ([1]; 4 h): 0.66 ± 0.07 %IA/g; Lungs ([1]; 4 h): 0.16 ± 0.04 %IA/g; Muscle ([1]; 4 h): 0.06 ± 0.01 %IA/g; Spleen ([1]; 4 h): 0.45 ± 0.00 %IA/g; Stomach ([1]; 4 h): 0.29 ± 0.02 %IA; Urine ([1]; 4 h): 55.9 ± 7.1 %IA; cell uptake (sum of surface bound and internalized radioactivity) [2]: 1.77 ± 0.20 % cell uptake/10^6 cells; MRT Blood [3]: 14.7 min; MRT Heart [3]: 0.3 min; MRT Kidney [3]: 9.2 min; MRT Liver [3]: 30.5 min; MRT Lung [3]: 0.9 min; MRT Spleen [3]: 1.2 min; MRT Stomach [3]: 1.5 min; % Protein Binding (serum proteins): 14.95 ± 1.95%

Question: Which results are given for “[Tc(N)(H2NS-cRGDfK)(PNP3OH)]^+ [^99mTc3]”?
Answer: Blood ([1]; 0.5 h): 0.46 ± 0.07 %IA/g; Heart ([1]; 0.5 h): 0.25 ± 0.06 %IA/g; Intestine ([1]; 0.5 h): 1.29 ± 0.13 %IA/g; Kidneys ([1]; 0.5 h): 5.22 ± 0.44 %IA/g; Liver ([1]; 0.5 h): 0.90 ± 0.09 %IA/g; Lungs ([1]; 0.5 h): 0.62 ± 0.08 %IA/g; Muscle ([1]; 0.5 h): 0.17 ± 0.01 %IA/g; Spleen ([1]; 0.5 h): 0.43 ± 0.05 %IA/g; Stomach ([1]; 0.5 h): 0.72 ± 0.04 %IA; Urine ([1]; 0.5 h): 27.8 ± 5.6 %IA; Blood ([1]; 1 h): 0.25 ± 0.03 %IA/g; Heart ([1]; 1 h): 0.15 ± 0.00 %IA/g; Intestine ([1]; 1 h): 1.95 ± 0.17 %IA/g; Kidneys ([1]; 1 h): 4.83 ± 0.35 %IA/g; Liver ([1]; 1 h): 0.80 ± 0.06 %IA/g; Lungs ([1]; 1 h): 0.49 ± 0.01 %IA/g; Muscle ([1]; 1 h): 0.13 ± 0.01 %IA/g; Spleen ([1]; 1 h): 0.39 ± 0.04 %IA/g; Stomach ([1]; 1 h): 0.64 ± 0.08 %IA; Urine ([1]; 1 h): 31.2 ± 3.0 %IA; Blood ([1]; 2 h): 0.16 ± 0.01 %IA/g; Heart ([1]; 2 h): 0.13 ± 0.02 %IA/g; Intestine ([1]; 2 h): 3.76 ± 0.27 %IA/g; Kidneys ([1]; 2 h): 4.44 ± 0.32 %IA/g; Liver ([1]; 2 h): 0.75 ± 0.09 %IA/g; Lungs ([1]; 2 h): 0.37 ± 0.06 %IA/g; Muscle ([1]; 2 h): 0.12 ± 0.00 %IA/g; Spleen ([1]; 2 h): 0.36 ± 0.02 %IA/g; Stomach ([1]; 2 h): 0.57 ± 0.03 %IA; Urine ([1]; 2 h): 44.2 ± 10.9 %IA; Blood ([1]; 4 h): 0.09 ± 0.01 %IA/g; Heart ([1]; 4 h): 0.12 ± 0.03 %IA/g; Intestine ([1]; 4 h): 4.17 ± 0.59 %IA/g; Kidneys ([1]; 4 h): 4.22 ± 0.45 %IA/g; Liver ([1]; 4 h): 0.67 ± 0.04 %IA/g; Lungs ([1]; 4 h): 0.32 ± 0.02 %IA/g; Muscle ([1]; 4 h): 0.08 ± 0.00 %IA/g; Spleen ([1]; 4 h): 0.34 ± 0.04 %IA/g; Stomach ([1]; 4 h): 0.46 ± 0.04 %IA; Urine ([1]; 4 h): 30.2 ± 9.45 %IA; cell uptake (sum of surface bound and internalized radioactivity) [2]: 1.73 ± 0.27 % cell uptake/10^6 cells; MRT Blood [3]: 14.5 min; MRT Heart [3]: 0.4 min; MRT Kidney [3]: 36.7 min; MRT Liver [3]: 26.7 min; MRT Lung [3]: 1.6 min; MRT Spleen [3]: 0.8 min; MRT Stomach [3]: 2.1 min; % Protein Binding (serum proteins): 7.91 ± 2.01%

Question: What does the source list for [Tc(N)(H2NS-cRGDfK)(PNP43)]^+ [^99mTc2]?
Answer: Blood ([1]; 0.5 h): 0.65 ± 0.04 %IA/g; Heart ([1]; 0.5 h): 0.30 ± 0.01 %IA/g; Intestine ([1]; 0.5 h): 1.19 ± 0.14 %IA/g; Kidneys ([1]; 0.5 h): 6.77 ± 0.86 %IA/g; Liver ([1]; 0.5 h): 0.90 ± 0.13 %IA/g; Lungs ([1]; 0.5 h): 0.82 ± 0.09 %IA/g; Muscle ([1]; 0.5 h): 0.22 ± 0.03 %IA/g; Spleen ([1]; 0.5 h): 0.47 ± 0.02 %IA/g; Stomach ([1]; 0.5 h): 0.82 ± 0.07 %IA; Urine ([1]; 0.5 h): 17.7 ± 3.6 %IA; Blood ([1]; 1 h): 0.35 ± 0.07 %IA/g; Heart ([1]; 1 h): 0.20 ± 0.04 %IA/g; Intestine ([1]; 1 h): 1.69 ± 0.17 %IA/g; Kidneys ([1]; 1 h): 6.20 ± 0.68 %IA/g; Liver ([1]; 1 h): 0.73 ± 0.01 %IA/g; Lungs ([1]; 1 h): 0.56 ± 0.10 %IA/g; Muscle ([1]; 1 h): 0.14 ± 0.03 %IA/g; Spleen ([1]; 1 h): 0.40 ± 0.05 %IA/g; Stomach ([1]; 1 h): 0.64 ± 0.08 %IA; Urine ([1]; 1 h): 28.5 ± 4.6 %IA; Blood ([1]; 2 h): 0.19 ± 0.04 %IA/g; Heart ([1]; 2 h): 0.15 ± 0.06 %IA/g; Intestine ([1]; 2 h): 1.94 ± 0.25 %IA/g; Kidneys ([1]; 2 h): 5.51 ± 0.42 %IA/g; Liver ([1]; 2 h): 0.57 ± 0.03 %IA/g; Lungs ([1]; 2 h): 0.42 ± 0.02 %IA/g; Muscle ([1]; 2 h): 0.12 ± 0.01 %IA/g; Spleen ([1]; 2 h): 0.38 ± 0.04 %IA/g; Stomach ([1]; 2 h): 0.51 ± 0.08 %IA; Urine ([1]; 2 h): 41.5 ± 4.5 %IA; Blood ([1]; 4 h): 0.11 ± 0.02 %IA/g; Heart ([1]; 4 h): 0.12 ± 0.01 %IA/g; Intestine ([1]; 4 h): 1.90 ± 0.19 %IA/g; Kidneys ([1]; 4 h): 4.27 ± 0.31 %IA/g; Liver ([1]; 4 h): 0.52 ± 0.07 %IA/g; Lungs ([1]; 4 h): 0.34 ± 0.04 %IA/g; Muscle ([1]; 4 h): 0.09 ± 0.00 %IA/g; Spleen ([1]; 4 h): 0.34 ± 0.07 %IA/g; Stomach ([1]; 4 h): 0.41 ± 0.09 %IA; Urine ([1]; 4 h): 43.5 ± 3.4 %IA; cell uptake (sum of surface bound and internalized radioactivity) [2]: 1.65 ± 0.40 % cell uptake/10^6 cells; MRT Blood [3]: 16.9 min; MRT Heart [3]: 0.4 min; MRT Kidney [3]: 30.7 min; MRT Liver [3]: 25.9 min; MRT Lung [3]: 1.6 min; MRT Spleen [3]: 0.8 min; MRT Stomach [3]: 2.1 min; % Protein Binding (serum proteins): 13.63 ± 2.95%
